Key:
Opti-Pgp = target: T1, Opti-Pgp (Mus musculus, UniProt P21447, N83Q/N87Q/N90Q); assay: ATPase assay of purified, lipid-activated Pgp (coupled ATP-regenerating assay); assay type: biochemical
T1 construct: made in house; host or cells: Pichia pastoris KM71H
Procedure: (§1) Purified Pgp in 0.1% DDM was mixed with 10 mM DTT on ice for 5 min, then activated with 1% E. coli polar lipids for 15 minutes at room temperature followed by 30 s bath sonication as described. ATPase activity was measured at 37° C. in a coupled assay utilizing an ATP-regenerating system. For each well of a 96-well plate, 10 μl (5 μg) of activated wild type (WT) Pgp or Opti-Pgp was added to 200 μl of assay medium containing 10 mM ATP, 12 mM MgSO4, 3 mM phosphoenolpyruvate, 0.3 mM NADH, 0.5 mg/ml of lactate dehydrogenase, 0.5 mg/ml of pyruvate kinase, 0.1 mM EGTA and 40 mM Tris-HCl, pH 7.4. Verapamil was added from stock solution in water; cyclosporine A was added from concentrated stock in DMSO such that the final DMSO concentration was 2%; control samples contained 2% DMSO. […] ATPase activity was calculated as described previously and plotted with SigmaPlot 10 (Systat Software, Inc.).

[1] = Differential scanning calorimetry, thermal unfolding; assay type: physicochemical
Procedure: Calorimetry was routinely carried out in 20 mM HEPES, pH 7.6, 50 mM NaCl, 10% glycerol, 0.1% DDM and 5.5 mM DTT in 0.13 mL cells at a heating rate of 2 K/minutes with the VP-Capillary DSC System (MicroCal Inc., GE Healthcare). An external pressure of 2.0 atm was maintained to prevent possible degassing of the solutions on heating. Thermal unfolding was irreversible, as determined by sample cooling and reheating. Heat capacity curves were corrected for instrumental baseline obtained by buffer scans. Separated DSC scans were conducted for buffer containing 1% lipids and no transition was detected in the temperature range of thermal unfolding for the proteins in presence of lipids. DSC data were analyzed with the MicroCal Origin software to obtain the unfolding temperature (Tm) and the total unfolding enthalpy (ΔHcal).

[2] = tested on: S. cerevisiae strain JPY201; assay: Drug-resistant growth of Pgp transformants (FK506, valinomycin, doxorubicin); assay type: cell-based
Procedure: (§2) FK506 resistance and mating assays were as previously described with the following modifications. To measure FK506-resistant growth, overnight cultures were grown in uracil-deficient medium, diluted to an (OD600 of 0.05, seeded into sterile 96 well plates in triplicate and grown in YPD medium at 30° C. in the absence or presence of FK506, valinomycin [12, 33], or doxorubicin. OD600 was measured at 2 hour intervals for 30 hours in a microplate reader (Benchmark Plus, BioRad) after vigorous mixing. Drugs were dissolved in dimethylsulfoxide and diluted into the plate medium such that the final concentration of solvent was ≦1%. For mating assays, mass populations were diluted to OD600 of 0.6, and 0.75 ml were spotted with 0.25 ml of α-type tester strain DC17 (OD600 of 1.2) onto a 22 mm 0.45 μm HA filter (Millipore, cat no SAIJ791H5), placed on a YPD plate and incubated for 4 hours, then plated in duplicate on minimal and uracil-deficient medium as described. Mating frequency was calculated as the ratio of transformed cells forming diploid colonies on selective medium to the total number of cells introduced in the assay. Statistical analysis of the functional assays was done with the SigmaPlot 11 software using One Way ANOV A with the pairwise multiple comparison Tukey test.

[3] = tested on: S. cerevisiae strain JPY201; assay: Mating assay (a-factor export, diploid formation); assay type: cell-based; conditions: sterile ste6Δ strain JPY201, tester DC17
Procedure: as §2

WT-Pgp = target: T2, WT-Pgp (Mus musculus, UniProt P21447, N83Q/N87Q/N90Q); assay: ATPase assay of purified, lipid-activated Pgp (coupled ATP-regenerating assay); assay type: biochemical; conditions: 150 μM verapamil, 1% E. coli lipids, 37° C., n > 30
T2 construct: Arrows indicate the position of the full-length proteins (Pgp); made in house; host or cells: Pichia pastoris KM71H
T2 sequence (P21447 whole entry N83Q/N87Q/N90Q): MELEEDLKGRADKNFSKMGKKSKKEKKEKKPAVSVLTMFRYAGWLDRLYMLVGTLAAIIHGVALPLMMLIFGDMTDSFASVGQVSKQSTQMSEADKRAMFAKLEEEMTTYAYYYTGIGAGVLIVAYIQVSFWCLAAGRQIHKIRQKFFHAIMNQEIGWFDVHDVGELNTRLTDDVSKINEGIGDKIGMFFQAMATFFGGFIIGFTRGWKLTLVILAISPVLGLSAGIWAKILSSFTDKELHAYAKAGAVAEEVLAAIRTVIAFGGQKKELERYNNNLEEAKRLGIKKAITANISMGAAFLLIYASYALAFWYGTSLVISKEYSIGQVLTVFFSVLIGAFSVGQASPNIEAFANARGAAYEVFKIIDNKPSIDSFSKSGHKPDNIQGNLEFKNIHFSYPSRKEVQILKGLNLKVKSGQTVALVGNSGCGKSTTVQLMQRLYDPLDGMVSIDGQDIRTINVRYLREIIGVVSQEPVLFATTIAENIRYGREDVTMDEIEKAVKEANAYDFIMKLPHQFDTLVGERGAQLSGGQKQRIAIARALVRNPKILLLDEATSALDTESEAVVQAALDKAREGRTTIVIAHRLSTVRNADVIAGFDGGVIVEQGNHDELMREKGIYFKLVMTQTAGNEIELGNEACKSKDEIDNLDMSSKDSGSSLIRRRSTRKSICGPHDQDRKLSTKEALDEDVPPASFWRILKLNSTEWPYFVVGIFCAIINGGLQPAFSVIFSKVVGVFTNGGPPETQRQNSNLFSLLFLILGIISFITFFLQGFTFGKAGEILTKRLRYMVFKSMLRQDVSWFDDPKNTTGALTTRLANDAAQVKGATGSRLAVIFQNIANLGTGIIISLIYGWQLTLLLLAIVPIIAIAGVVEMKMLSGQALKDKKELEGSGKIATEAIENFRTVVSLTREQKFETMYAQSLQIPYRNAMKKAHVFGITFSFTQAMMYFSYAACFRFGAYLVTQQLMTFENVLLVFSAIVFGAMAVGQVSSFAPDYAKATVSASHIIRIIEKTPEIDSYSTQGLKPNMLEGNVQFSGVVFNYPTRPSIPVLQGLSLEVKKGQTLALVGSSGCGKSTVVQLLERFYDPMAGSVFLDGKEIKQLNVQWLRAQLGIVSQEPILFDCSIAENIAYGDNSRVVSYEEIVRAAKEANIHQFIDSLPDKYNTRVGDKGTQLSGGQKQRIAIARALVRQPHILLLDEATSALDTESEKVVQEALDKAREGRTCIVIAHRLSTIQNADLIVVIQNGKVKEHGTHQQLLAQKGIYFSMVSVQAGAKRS
Procedure: as §1

[4] = target: gene-optimized P-glycoprotein (mouse opti-MDR3 gene product) with C-terminal His6-tag (mouse) (UniProt P21447); assay: cell-based or functional assay
[5] = target: wild-type P-glycoprotein (mouse MDR3 gene product) with C-terminal His6-tag (mouse) (UniProt P21447); assay: cell-based or functional assay

T1 sequence (P21447 whole entry N83Q/N87Q/N90Q): as above

## Opti-Pgp: P-glycoprotein (mouse MDR3) expressed from codon-optimized opti-MDR3 gene, primary sequence identical to wild-type, C-terminal His6 tag
Opti-Pgp; 0.13% lipid
  verapamil-stimulated ATPase activity: 40%
Opti-Pgp; 0.52% lipid
  verapamil-stimulated ATPase activity: 80%
Opti-Pgp; Opti-Pgp versus WT-Pgp
  ATP hydrolysis rate enhancement over wild-type Pgp: 1.2 fold
Opti-Pgp; absence of lipids
  verapamil-stimulated ATPase activity: 11%
Opti-Pgp; purified Opti-Pgp, 150 μM verapamil, 1% E. coli lipids, 37° C., n > 30
  Maximal ATPase activity: 2.1 ± 0.28 µmol/min/mg
Opti-Pgp; purified Opti-Pgp, as printed in summary
  Maximum turnover number: 2.1 ± 0.28 µmol/min/mg
[1]; 0.13% lipid
  Tm (intermediate): 48 °C
[1]; 1% lipid
  Unfolding temperature T1: 49.3 ± 1.0 °C
  Unfolding temperature T2: 58.7 ± 0.5 °C
  ΔHcal: 567 ± 33 kcal/mol
[1]; no added lipids, 0.1% DDM
  Unfolding temperature T1: 42.7 ± 1.7 °C
  ΔHcal: 264 ± 67 kcal/mol
[2]; FK506 25 μg/ml
  Growth resistance compared with WT-Pgp transformants: no difference
[2]; FK506 50 or 75 μg/ml
  Growth resistance compared with WT-Pgp transformants: grew significantly faster
[2]; doxorubicin 45 μM
  Growth resistance compared with WT-Pgp transformants: grew significantly faster
[2]; doxorubicin 15 and 30 μM
  Growth resistance compared with WT-Pgp transformants: no significant difference
[2]; in the presence of FK506
  Time after inoculation to enter log-phase growth: approximately 22 hours
  Time to reach stationary phase: approximately 28 hours
[2]; valinomycin 80 μg/ml, data not shown
  Growth compared with WT-Pgp transformants: as good as or better than
[3]
  Mating frequency relative to WT-Pgp controls: about 1.5 fold

## WT-Pgp: wild-type mouse MDR3 P-glycoprotein expressed from the native gene, comparison protein
WT-Pgp
  Maximal ATPase activity: 1.8 ± 0.24 µmol/min/mg
[1]; 1% lipid
  Unfolding temperature T1: 50.4 ± 0.9 °C
  Unfolding temperature T2: 57.8 ± 0.1 °C
  ΔHcal: 518 ± 4.2 kcal/mol
[1]; no added lipids, 0.1% DDM
  Unfolding temperature T1: 43.0 ± 1.6 °C
  ΔHcal: 264 ± 87 kcal/mol

## cyclosporine A (peptide)
[4]
  Half-maximal inhibition by cyclosporine A (µM) of verapamil-stimulated ATPase activity: 1.1 µM
[5]
  Half-maximal inhibition by cyclosporine A (µM) of verapamil-stimulated ATPase activity: 0.98 µM
